Source: publication PMC6754583

Target: full-length von Willebrand factor (VWF) dimer, hetero-bifunctional construct (UniProt P04275)
Test: magnetic tweezers single-molecule force spectroscopy

## full-length von Willebrand factor (VWF) dimer, hetero-bifunctional construct (from UniProt P04275 764-2813; P04275 764-2813) (natural protein)
  mean dwell time between stem transitions (fits to individual datasets): 0.28 s
  mean dwell time between stem transitions (global fit): 0.28 s
  midpoint force F1/2 of stem opening: 1 pN
